What was measured:
Assay in all cases: holdup assay
Set-up in all cases: key: below the threshold = too weak to quantify, mostly under pKd 3.1 to 4
Details in all cases: plain residues with an end cap or a label only (N-terminal biotin on a linker: ttds)
PICK1, Q9NRD5 = molecular target: PICK1, Q9NRD5
LNX2_2, Q8N448 = molecular target: T1, LNX2_2, Q8N448
T1 sequence (Q8N448 334-432, limits assumed, looked up): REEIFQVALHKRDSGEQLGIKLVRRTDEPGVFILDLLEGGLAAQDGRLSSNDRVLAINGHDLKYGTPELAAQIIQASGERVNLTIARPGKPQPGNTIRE

GRID2IP_2, A4D2P6 = molecular target: GRID2IP_2, A4D2P6
IL16_3, Q14005 = molecular target: IL16_3, Q14005
TJP1_3, Q07157 = molecular target: TJP1_3, Q07157
GOPC, Q9HD26 = molecular target: GOPC, Q9HD26
GRIP2_4, Q9C0E4 = molecular target: GRIP2_4, Q9C0E4
DFNB31_3, Q9P202 = molecular target: T2, DFNB31_3, Q9P202
T2 sequence (Q9P202 811-907, limits assumed, looked up): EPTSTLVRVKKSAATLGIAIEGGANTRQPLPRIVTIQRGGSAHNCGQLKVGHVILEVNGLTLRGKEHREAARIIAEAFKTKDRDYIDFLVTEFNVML

TJP1_2, Q07157 = molecular target: TJP1_2, Q07157
MAGI1_1, Q96QZ7 = molecular target: MAGI1_1, Q96QZ7
Inadl_5, Q8NI35 = molecular target: Inadl_5, Q8NI35
SNX27, Q96L92 = molecular target: SNX27, Q96L92
MPDZ_10, O75970 = molecular target: T3, MPDZ_10, O75970
T3 sequence (O75970 1624-1722, limits assumed, looked up): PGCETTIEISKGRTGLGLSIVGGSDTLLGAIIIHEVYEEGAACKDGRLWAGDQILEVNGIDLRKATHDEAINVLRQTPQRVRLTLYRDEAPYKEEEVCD

Inadl_1, Q8NI35 = molecular target: Inadl_1, Q8NI35
APBA2_2, Q99767 = molecular target: T4, APBA2_2, Q99767
T4 sequence (Q99767 654-744, limits assumed, looked up): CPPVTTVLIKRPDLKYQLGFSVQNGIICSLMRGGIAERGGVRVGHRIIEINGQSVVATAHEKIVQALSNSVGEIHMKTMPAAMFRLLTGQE

GRIP2_5, Q9C0E4 = molecular target: GRIP2_5, Q9C0E4
DFNB31_2, Q9P202 = molecular target: T5, DFNB31_2, Q9P202
T5 sequence (Q9P202 274-371, limits assumed, looked up): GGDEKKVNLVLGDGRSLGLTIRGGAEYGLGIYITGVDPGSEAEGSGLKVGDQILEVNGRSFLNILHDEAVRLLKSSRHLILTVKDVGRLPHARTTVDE

DLG1_3, Q12959 = molecular target: DLG1_3, Q12959
GORASP2, Q9H8Y8 = molecular target: GORASP2, Q9H8Y8
LNX2_3, Q8N448 = molecular target: T6, LNX2_3, Q8N448
T6 sequence (Q8N448 463-564, limits assumed, looked up): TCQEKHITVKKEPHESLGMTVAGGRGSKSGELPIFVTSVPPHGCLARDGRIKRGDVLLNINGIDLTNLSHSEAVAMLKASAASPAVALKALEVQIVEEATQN

ARHGEF11, O15085 = molecular target: T7, ARHGEF11, O15085
T7 sequence (O15085 42-136, limits assumed, looked up): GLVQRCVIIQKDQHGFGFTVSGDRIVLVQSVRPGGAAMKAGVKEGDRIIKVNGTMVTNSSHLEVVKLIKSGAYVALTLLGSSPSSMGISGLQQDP

HTRA2, O43464 = molecular target: HTRA2, O43464
Inadl_4, Q8NI35 = molecular target: Inadl_4, Q8NI35
MAGI3_2, Q5TCQ9 = molecular target: MAGI3_2, Q5TCQ9
Inadl_9, Q8NI35 = molecular target: Inadl_9, Q8NI35
MAST1, Q9Y2H9 = molecular target: MAST1, Q9Y2H9
HTRA3, P83110 = molecular target: T8, HTRA3, P83110
T8 sequence (P83110 354-453, limits assumed, looked up): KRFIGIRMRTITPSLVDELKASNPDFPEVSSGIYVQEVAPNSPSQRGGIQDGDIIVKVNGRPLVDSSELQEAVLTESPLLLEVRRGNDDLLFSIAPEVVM

NHERF3_3, Q5T2W1 = molecular target: T9, NHERF3_3, Q5T2W1
T9 sequence (Q5T2W1 238-333, limits assumed, looked up): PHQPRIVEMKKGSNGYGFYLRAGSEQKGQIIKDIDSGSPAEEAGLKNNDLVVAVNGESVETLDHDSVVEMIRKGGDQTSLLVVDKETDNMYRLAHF

HTRA1, Q92743 = molecular target: HTRA1, Q92743
HTRA1, Q92743, sequence (Q92743 360-477): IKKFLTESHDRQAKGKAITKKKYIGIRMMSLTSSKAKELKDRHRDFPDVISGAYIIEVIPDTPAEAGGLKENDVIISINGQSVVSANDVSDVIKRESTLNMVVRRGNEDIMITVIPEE

Inadl_1, Q8NI35, sequence (Q8NI35 113-229): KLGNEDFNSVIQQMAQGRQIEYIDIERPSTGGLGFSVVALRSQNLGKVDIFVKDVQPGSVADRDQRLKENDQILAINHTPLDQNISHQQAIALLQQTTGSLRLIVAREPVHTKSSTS
Inadl_5, Q8NI35, sequence (Q8NI35 673-780): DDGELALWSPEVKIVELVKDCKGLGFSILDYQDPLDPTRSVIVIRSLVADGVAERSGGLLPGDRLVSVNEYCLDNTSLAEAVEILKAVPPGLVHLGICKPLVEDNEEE
GRID2IP_2, A4D2P6, sequence (A4D2P6 272-370): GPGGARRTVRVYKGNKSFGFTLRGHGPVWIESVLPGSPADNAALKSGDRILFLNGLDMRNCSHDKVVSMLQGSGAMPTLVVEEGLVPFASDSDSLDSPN
GRIP2_4, Q9C0E4, sequence (Q9C0E4 446-548): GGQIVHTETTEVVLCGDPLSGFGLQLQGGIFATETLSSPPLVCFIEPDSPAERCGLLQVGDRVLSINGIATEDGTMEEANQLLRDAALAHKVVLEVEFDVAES
Inadl_4, Q8NI35, sequence (Q8NI35 547-651): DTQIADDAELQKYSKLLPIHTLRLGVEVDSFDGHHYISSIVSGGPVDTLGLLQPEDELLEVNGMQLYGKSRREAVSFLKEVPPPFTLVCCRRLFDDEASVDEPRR
MAGI3_2, Q5TCQ9, sequence (Q5TCQ9 398-503): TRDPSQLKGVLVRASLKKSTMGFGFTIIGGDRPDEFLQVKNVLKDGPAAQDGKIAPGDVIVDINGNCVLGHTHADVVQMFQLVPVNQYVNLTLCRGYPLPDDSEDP
TJP1_2, Q07157, sequence (Q07157 181-274): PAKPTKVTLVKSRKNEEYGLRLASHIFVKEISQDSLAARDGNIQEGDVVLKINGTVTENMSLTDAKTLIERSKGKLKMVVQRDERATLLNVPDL
Inadl_9, Q8NI35, sequence (Q8NI35 1530-1615): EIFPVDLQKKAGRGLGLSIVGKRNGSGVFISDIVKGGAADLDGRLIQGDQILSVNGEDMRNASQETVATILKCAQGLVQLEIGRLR
TJP1_3, Q07157, sequence (Q07157 416-512): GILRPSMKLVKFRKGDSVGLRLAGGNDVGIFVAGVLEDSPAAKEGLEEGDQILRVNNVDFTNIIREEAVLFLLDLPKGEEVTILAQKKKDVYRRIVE
HTRA2, O43464, sequence (O43464 355-458): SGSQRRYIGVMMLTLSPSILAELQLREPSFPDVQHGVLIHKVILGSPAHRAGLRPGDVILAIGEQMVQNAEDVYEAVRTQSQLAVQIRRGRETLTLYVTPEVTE
GRIP2_5, Q9C0E4, sequence (Q9C0E4 544-642): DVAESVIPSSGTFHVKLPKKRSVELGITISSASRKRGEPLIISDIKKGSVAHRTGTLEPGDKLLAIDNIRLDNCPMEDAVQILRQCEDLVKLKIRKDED
IL16_3, Q14005, sequence (Q14005 1107-1207): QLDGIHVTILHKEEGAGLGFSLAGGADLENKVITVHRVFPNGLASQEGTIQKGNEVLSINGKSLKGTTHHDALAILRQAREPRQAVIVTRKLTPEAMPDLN
MAGI1_1, Q96QZ7, sequence (Q96QZ7 1-106): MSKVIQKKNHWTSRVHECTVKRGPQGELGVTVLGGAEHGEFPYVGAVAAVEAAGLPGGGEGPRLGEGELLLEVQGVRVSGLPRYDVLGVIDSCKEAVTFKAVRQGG
MAST1, Q9Y2H9, sequence (Q9Y2H9 962-1065): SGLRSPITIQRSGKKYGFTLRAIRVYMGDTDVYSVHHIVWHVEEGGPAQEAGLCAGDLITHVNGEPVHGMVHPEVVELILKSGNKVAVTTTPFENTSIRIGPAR
PICK1, Q9NRD5, sequence (Q9NRD5 17-115): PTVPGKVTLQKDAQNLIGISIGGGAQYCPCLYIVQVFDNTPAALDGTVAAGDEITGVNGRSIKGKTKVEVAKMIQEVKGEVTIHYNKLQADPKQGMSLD
DLG1_3, Q12959, sequence (Q12959 457-571): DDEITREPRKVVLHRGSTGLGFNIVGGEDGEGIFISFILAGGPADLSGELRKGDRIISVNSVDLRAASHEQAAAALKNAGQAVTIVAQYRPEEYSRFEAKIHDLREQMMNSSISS

DKDPHSETAL [TMIGD1, Q6UXZ0]
pKd (PICK1, Q9NRD5): below the threshold | pKd (LNX2_2, Q8N448): below the threshold | pKd (GRID2IP_2, A4D2P6): below the threshold | pKd (IL16_3, Q14005): below the threshold | pKd (TJP1_3, Q07157): below the threshold | pKd (GOPC, Q9HD26): below the threshold | pKd (GRIP2_4, Q9C0E4): below the threshold | pKd (DFNB31_3, Q9P202): below the threshold | pKd (TJP1_2, Q07157): below the threshold | pKd (MAGI1_1, Q96QZ7): below the threshold | pKd (Inadl_5, Q8NI35): below the threshold | pKd (SNX27, Q96L92): 5.49 | pKd (MPDZ_10, O75970): below the threshold | pKd (Inadl_1, Q8NI35): below the threshold | pKd (APBA2_2, Q99767): below the threshold | pKd (GRIP2_5, Q9C0E4): below the threshold | pKd (DFNB31_2, Q9P202): below the threshold | pKd (DLG1_3, Q12959): below the threshold | pKd (GORASP2, Q9H8Y8): below the threshold | pKd (LNX2_3, Q8N448): below the threshold | pKd (ARHGEF11, O15085): 4.28 | pKd (HTRA2, O43464): below the threshold | pKd (Inadl_4, Q8NI35): below the threshold | pKd (MAGI3_2, Q5TCQ9): 4.19 | pKd (Inadl_9, Q8NI35): below the threshold | pKd (MAST1, Q9Y2H9): 4.85 | pKd (HTRA3, P83110): below the threshold | pKd (NHERF3_3, Q5T2W1): below the threshold | pKd (HTRA1, Q92743): below the threshold

KKYVDAETSL [SLC4A7, Q9Y6M7]
pKd (PICK1, Q9NRD5): below the threshold | pKd (LNX2_2, Q8N448): below the threshold | pKd (GRID2IP_2, A4D2P6): 4.02 | pKd (IL16_3, Q14005): below the threshold | pKd (TJP1_3, Q07157): below the threshold | pKd (GOPC, Q9HD26): 4.09 | pKd (GRIP2_4, Q9C0E4): below the threshold | pKd (DFNB31_3, Q9P202): below the threshold | pKd (TJP1_2, Q07157): below the threshold | pKd (MAGI1_1, Q96QZ7): below the threshold | pKd (Inadl_5, Q8NI35): below the threshold | pKd (SNX27, Q96L92): 5.71 | pKd (MPDZ_10, O75970): below the threshold | pKd (Inadl_1, Q8NI35): 3.55 | pKd (APBA2_2, Q99767): below the threshold | pKd (GRIP2_5, Q9C0E4): below the threshold | pKd (DFNB31_2, Q9P202): 3.5 | pKd (DLG1_3, Q12959): 3.75 | pKd (GORASP2, Q9H8Y8): below the threshold | pKd (LNX2_3, Q8N448): below the threshold | pKd (ARHGEF11, O15085): 3.97 | pKd (HTRA2, O43464): below the threshold | pKd (Inadl_4, Q8NI35): below the threshold | pKd (MAGI3_2, Q5TCQ9): below the threshold | pKd (Inadl_9, Q8NI35): below the threshold | pKd (MAST1, Q9Y2H9): 5.32 | pKd (HTRA3, P83110): below the threshold | pKd (NHERF3_3, Q5T2W1): below the threshold | pKd (HTRA1, Q92743): 3.71

RHTTSTETAV [HPV30-E6, P36809]
pKd (PICK1, Q9NRD5): below the threshold | pKd (LNX2_2, Q8N448): 3.77 | pKd (GRID2IP_2, A4D2P6): below the threshold | pKd (IL16_3, Q14005): below the threshold | pKd (TJP1_3, Q07157): below the threshold | pKd (GOPC, Q9HD26): 4.14 | pKd (GRIP2_4, Q9C0E4): 3.66 | pKd (DFNB31_3, Q9P202): below the threshold | pKd (TJP1_2, Q07157): below the threshold | pKd (MAGI1_1, Q96QZ7): below the threshold | pKd (Inadl_5, Q8NI35): below the threshold | pKd (SNX27, Q96L92): 5.64 | pKd (MPDZ_10, O75970): below the threshold | pKd (Inadl_1, Q8NI35): below the threshold | pKd (APBA2_2, Q99767): below the threshold | pKd (GRIP2_5, Q9C0E4): 3.75 | pKd (DFNB31_2, Q9P202): below the threshold | pKd (DLG1_3, Q12959): 4.39 | pKd (GORASP2, Q9H8Y8): below the threshold | pKd (LNX2_3, Q8N448): below the threshold | pKd (ARHGEF11, O15085): 4.35 | pKd (HTRA2, O43464): below the threshold | pKd (Inadl_4, Q8NI35): below the threshold | pKd (MAGI3_2, Q5TCQ9): 5.36 | pKd (Inadl_9, Q8NI35): below the threshold | pKd (MAST1, Q9Y2H9): 4.66 | pKd (HTRA3, P83110): below the threshold | pKd (NHERF3_3, Q5T2W1): below the threshold | pKd (HTRA1, Q92743): 3.73

SSLQSLETSV [ATP2B4, P23634]
pKd (PICK1, Q9NRD5): 3.76 | pKd (LNX2_2, Q8N448): 4.01 | pKd (GRID2IP_2, A4D2P6): below the threshold | pKd (IL16_3, Q14005): below the threshold | pKd (TJP1_3, Q07157): below the threshold | pKd (GOPC, Q9HD26): below the threshold | pKd (GRIP2_4, Q9C0E4): below the threshold | pKd (DFNB31_3, Q9P202): below the threshold | pKd (TJP1_2, Q07157): below the threshold | pKd (MAGI1_1, Q96QZ7): 3.71 | pKd (Inadl_5, Q8NI35): below the threshold | pKd (SNX27, Q96L92): 5.7 | pKd (MPDZ_10, O75970): below the threshold | pKd (Inadl_1, Q8NI35): below the threshold | pKd (APBA2_2, Q99767): 3.59 | pKd (GRIP2_5, Q9C0E4): below the threshold | pKd (DFNB31_2, Q9P202): below the threshold | pKd (DLG1_3, Q12959): 4.86 | pKd (GORASP2, Q9H8Y8): 3.98 | pKd (LNX2_3, Q8N448): below the threshold | pKd (ARHGEF11, O15085): 4.43 | pKd (HTRA2, O43464): below the threshold | pKd (Inadl_4, Q8NI35): below the threshold | pKd (MAGI3_2, Q5TCQ9): 4.79 | pKd (Inadl_9, Q8NI35): below the threshold | pKd (MAST1, Q9Y2H9): 5.26 | pKd (HTRA3, P83110): 3.51 | pKd (NHERF3_3, Q5T2W1): below the threshold | pKd (HTRA1, Q92743): 3.9

RLPKIKETTV [FRMPD4, Q14CM0]
pKd (PICK1, Q9NRD5): below the threshold | pKd (LNX2_2, Q8N448): 4.47 | pKd (GRID2IP_2, A4D2P6): 3.74 | pKd (IL16_3, Q14005): below the threshold | pKd (TJP1_3, Q07157): below the threshold | pKd (GOPC, Q9HD26): 3.83 | pKd (GRIP2_4, Q9C0E4): below the threshold | pKd (DFNB31_3, Q9P202): below the threshold | pKd (TJP1_2, Q07157): below the threshold | pKd (MAGI1_1, Q96QZ7): below the threshold | pKd (Inadl_5, Q8NI35): below the threshold | pKd (SNX27, Q96L92): 5.73 | pKd (MPDZ_10, O75970): below the threshold | pKd (Inadl_1, Q8NI35): below the threshold | pKd (APBA2_2, Q99767): below the threshold | pKd (GRIP2_5, Q9C0E4): below the threshold | pKd (DFNB31_2, Q9P202): 4.12 | pKd (DLG1_3, Q12959): 5.3 | pKd (GORASP2, Q9H8Y8): 4.02 | pKd (LNX2_3, Q8N448): below the threshold | pKd (ARHGEF11, O15085): 3.71 | pKd (HTRA2, O43464): below the threshold | pKd (Inadl_4, Q8NI35): below the threshold | pKd (MAGI3_2, Q5TCQ9): 5.27 | pKd (Inadl_9, Q8NI35): 3.48 | pKd (MAST1, Q9Y2H9): 4.26 | pKd (HTRA3, P83110): below the threshold | pKd (NHERF3_3, Q5T2W1): below the threshold | pKd (HTRA1, Q92743): 3.64

From article PMC9482650, “Quantitative fragmentomics allow affinity mapping of interactomes” (Nature Communications, 2022)
